According to US20190330346A1 (REMD BIOTHERAPEUTICS, published 2019):
Where a chain is given by its changes, count along the chain named. Names and notes keep the numbering of the source. Blank lines part the entries; values can stand above or below the binder they belong to.

Legend:
murine PD-1 = molecular target: T1, murine PD-1 (murine, UniProt Q02242 25-167, limits assumed); experiment: murine PD-1 binding ELISA
T1 construct: also called mouse PD-1
T1 sequence (looked up): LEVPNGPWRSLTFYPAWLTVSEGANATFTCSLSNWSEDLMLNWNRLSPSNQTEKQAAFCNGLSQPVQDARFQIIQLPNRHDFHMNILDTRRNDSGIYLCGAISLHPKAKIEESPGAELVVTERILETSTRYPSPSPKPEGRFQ

[1] = molecular target: T2, His-tagged human PD-1 protein (human, UniProt Q15116 25-170, limits assumed); experiment: SPR; Fab-SASA captured on immobilised BSA, his-tagged PD-1 as analyte
T2 construct: SPR analyte; also called his-tagged antigen PD-1; not shown: His tag
Experimental: For affinity ranking, BSA was immobilized onto the sensor chip using amine coupling method. The selected Fab-SASA secreted to the culture medium was injected and captured by BSA through the tight binding between BSA and SASA (capture phase). After equilibration, his-tagged antigen PD-1 was injected for 300 seconds (association phase) followed by the injection of running buffer for 900 seconds (dissociation phase). The surface was regenerated before the injection of another three Fab-SASA clones. The process was repeated until all selected Fab-SASA proteins were analyzed. Responses of reference flow cell were subtracted from those of Fab-SASA flow cells during each cycle. The antibodies were ranked by their dissociation rate constants (off-rates, […]). […]

human PD-1 [2] = molecular target: T3, human PD-1 (human, UniProt Q15116 25-167); experiment: SPR, multiple-cycle, crude Fab from E. coli; antigen form not stated
T3 construct: The immunogen was PD1/Fc (Leu25-Gln167 fused to human IgG1 Pro100-Lys330); also called huPD-1; hPD-1
Excerpt: (§1) A homology model of mouse anti-PD1 Fv was built wherein putative back mutation sites (i.e., buried residues of the frameworks that are different in the mouse and human acceptor sequences) were identified. There were a total of 14 putative back mutation sites. A variant humanized Fab comprising all 14 of the putative back mutation sites of PD1-grafted Ab mutated back to their mouse counterparts (hereinafter identified as “PD1-BM Ab”) comprising the heavy chain variable region sequence set forth in SEQ ID NO: 38 and the light chain variable region sequence set forth in SEQ ID NO: 39, was synthesized. In addition, 14 variants of PD1-BM Ab (hereinafter identified as Fabs 1-14), each having at least one of the putative 14 back mutation sites in PD1-BM Ab mutated back to the human counterpart, were synthesized. These constructs were used to transform E. coli TG1 strain. Single colonies were pick for each individual construct and grown in E. coli medium. Crude chimeric and humanized Fabs were collected and subjected to multiple-cycle affinity estimation by Surface Plasmon Resonance (SPR).

[3] = molecular target: T2, His-tagged human PD-1 protein; experiment: SPR (Biacore T200); IgG captured by anti-human Fc gamma, His-tagged human PD-1 as analyte, 1:1 model
Experimental: The binding affinity of the purified IgGs to human PD-1 protein were determined using a Surface Plasmon Resonance (SPR) biosensor, Biacore T200 (GE Healthcare). Antibodies were captured on the sensor chip pre-coated with anti-human Fc gamma. His-tagged human PD-1 protein was used as analyte. The data of dissociation (kd) and association (kₐ) rate constants were obtained using Biacore T200 evaluation software. The equilibrium dissociation constants (KD) were calculated from the ratio of kd over kₐ. Binding data for each antibody was processed and fitted to 1:1 interaction model using Biacore T200 evaluation software. All experimental data could be well fitted to the model.

[4] = molecular target: T2, His-tagged human PD-1 protein; experiment: SPR (Biacore T200); antibody captured by anti-human Fc gamma, His-tagged human PD-1 as analyte
Experimental: Using the HCVR sequence and LCVR sequence of mAb PD1#3, a murine-human chimeric Fab (hereinafter “chimeric IgG”) was prepared which comprised the heavy chain sequence set forth in SEQ ID NO: 32 and the light chain sequence set forth in SEQ ID NO: 34. The heavy chain and light chain of the chimeric IgG are encoded by the nucleic acids set forth in SEQ ID NOs: 33 and 35, respectively. Nucleic acids encded by SEQ ID NO: 33 and SEQ ID NO: 35 which include a leader sequence were amplified and inserted into pTT5 to make an expression plasmid of the full-length IgG. The heavy chain and light chain expression plasmids were used to co-transfect 100 mL HEK293-6E cells. The recombinant IgG secreted into to media was purified using protein A affinity. The purified IgG migrated as ˜170 kDa band in SDS-PAGE under non-reducing conditions, ˜55 kDa and ˜30 kDA bands under reducing condition. The purity of the chimeric IgG is >90%, and the yield form the 100 mL culture was 0.46 mg. The binding affinity between the chimeric IgG and PD1/Fc fusion protein was determined using a Surface Plasmon Resonance (SPR) biosensor, Biacore T200 (GE Healthcare). PD1#3 was immobilized on the sensor chip pre-coated with anti-human Fc gamma. His-tagged human PD-1 protein was used as analyte.

human PD-1 [5] = molecular target: T3, human PD-1; experiment: SPR, multiple-cycle, crude Fab from E. coli
Excerpt: as §1

human PD-1 [6] = molecular target: T3, human PD-1; experiment: SPR; antigen form not stated
human PD-1 [7] = molecular target: T3, human PD-1; experiment: SPR, multiple-cycle, crude Fab from E. coli; antigen form not stated; footnote: *out of the detection limit
Excerpt: as §1

T3 sequence (Q15116 25-167 limits assumed): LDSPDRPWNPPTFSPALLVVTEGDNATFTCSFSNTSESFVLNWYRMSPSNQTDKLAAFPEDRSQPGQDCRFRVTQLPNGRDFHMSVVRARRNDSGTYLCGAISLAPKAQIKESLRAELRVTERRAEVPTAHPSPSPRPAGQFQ
T2 sequence (Q15116 25-170 limits assumed): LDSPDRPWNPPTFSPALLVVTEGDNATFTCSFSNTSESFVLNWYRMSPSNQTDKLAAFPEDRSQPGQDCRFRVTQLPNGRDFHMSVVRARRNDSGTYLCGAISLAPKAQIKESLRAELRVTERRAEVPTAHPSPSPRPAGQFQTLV

B3: PD1-BM Ab (Fab) (Fab, V domains shown)
VH: EVQLVESGGGLVQPGGSLRLSCAASGFVFSRYDMAWVRQTPGKGLEWVAFISGGGSNTYYPDTVKGRFTISRDNSKNTLYLQMNSLRAEDTAVYYCISPYYYAMEYWGQGTTVTVSS
VL: DIQMTQSPSSISTSVGDRVTITCKASQDVDTAVAWYQQKPGKSPKLLIHWASTRHTGVPSRFSGSGSGTDFTLTLSSVQPEDLADYFCQQYSTFPWTFGGGTKLEIK
notes: Humanized Fab with all 14 back mutations; also called PD1-BM Fab
- Kd [1]: 0.0564 nM
- koff [1]: 1.78e-05 s⁻¹
- kon [1]: 315000 M⁻¹ s⁻¹
- Kd (human PD-1 [2]): 0.15 nM
- koff (human PD-1 [2]): 5.5e-05 s⁻¹
- kon (human PD-1 [2]): 360000 M⁻¹ s⁻¹

B5: AS05617 (IgG) (antibody, V domains shown)
VH: B3 VH with A49S
VL: DIQMTQSPSSISTSVGDRVTITCKASQDVDTAVAWYQQKPGKSPKLLIYWASTRHTGVPSRFSGSGSGTDFTLTISSLQPEDFADYFCQQYSTFPWTFGGGTKVEIKR
notes: Full-length humanized IgG from HEK293 cells
- Kd [3]: 1 nM
- koff [3]: 0.000183 s⁻¹
- kon [3]: 183000 M⁻¹ s⁻¹

B6: chimeric IgG (antibody, V domains shown)
VH: B3 VH with G10D, Q13K, R19K, G42E, G44R, S75A, N84T, R87K, A88S, T112S
VL: DIVMTQSHKFISTSVGDRVSITCKASQDVDTAVAWYQQKPGQSPKLLIHWASTRHTGVPDRFTGGGSGTDFTLTLSNVQSEDLADYFCQQYSTFPWTFGGGTRLEIKR
notes: Full-length IgG from HEK293-6E cells; also called murine-human chimeric antibody derived from PD1#3
- Kd [3]: 0.487 nM
- koff [3]: 0.000129 s⁻¹
- kon [3]: 265000 M⁻¹ s⁻¹
- Kd [4]: 0.48 nM

B7: PD1-BM-min (IgG) (antibody, V domains shown)
VH: B3 VH with T40A, A49S
VL: B5 VL with I11V, T13A, S43A, D85T, F87Y
notes: as for B5
- Kd [3]: 0.943 nM
- koff [3]: 0.000263 s⁻¹
- kon [3]: 279000 M⁻¹ s⁻¹

B9: PD1-BM Ab (IgG) (antibody, V domains shown)
VH: B3 VH
VL: B5 VL with Y49H, I75L, L78V, F83L, V104L
notes: as for B5
- Kd [3]: 0.579 nM
- koff [3]: 0.000139 s⁻¹
- kon [3]: 241000 M⁻¹ s⁻¹

B10: PD1-BM-min Ab (Fab) (Fab, V domains shown)
VH: B3 VH with T40A, A49S
VL: B3 VL with I11V, T13A, S43A, H49Y, L75I, V78L, L83F, D85T, F87Y, L104V
notes: Humanized Fab with only the VH A97I and K98S back mutations; also called PD1-Grafted VH-A97I & K98S
- Kd (human PD-1 [6]): 0.253 nM
- koff (human PD-1 [6]): 8.4e-05 s⁻¹
- kon (human PD-1 [6]): 332000 M⁻¹ s⁻¹

B11: Fab 2 (Fab, V domains shown)
VH: B3 VH with A49S
VL: B3 VL
notes: Crude Fab from E. coli; also called PD1-BM VH-A49S
- Kd (human PD-1 [7]): ≤ 0.025 nM
- koff (human PD-1 [7]): < 8.1e-06 s⁻¹
- kon (human PD-1 [2]): 320000 M⁻¹ s⁻¹

The remaining lines, values ahead:

- binding result (murine PD-1): no binding
B1: PD1#1 (antibody, V domains shown)
VH: QVQLQQPGAELVMPGASVKMSCKASGYTITDCWMHWVKQRPGQGLEWIGAIDTSNSYTTYNQKFKGKATLTVDESSSTAYMQFNSLTSDDSAVYFCAISLQRPFDYWGQGTTLTVSS
VL: DIQMTQSPASLSASVGENVTITCRASENVYSYLAWYQQKEGKSPQLLVYNAKTLTGGVPSRFSGSGSGTQFSLRISSLQPEDFGSYYCLQHYGYPFTFGSGTKLEKK
notes: Murine hybridoma mAb purified on Protein A; also called mAb PD1#1

- binding result (murine PD-1): no binding
B2: PD1#4 (antibody, V domains shown)
VH: EVRLVESGGGLVKPGGSLKVSCVASGFTFSRYGMSWVRQTPEKRLEWVATISGGGRDTYYPDSVKGRFTISRDNAKNNLYLQMSSLRSEDTALYYCVRQEDIVWFAYWGQGTLVTVSA
VL: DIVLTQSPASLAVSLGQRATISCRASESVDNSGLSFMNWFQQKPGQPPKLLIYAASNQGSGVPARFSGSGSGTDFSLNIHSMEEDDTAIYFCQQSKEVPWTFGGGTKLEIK
notes: Murine hybridoma mAb purified on Protein A; also called mAb PD1#4

- binding result (murine PD-1): no binding
B4: PD1#3 (antibody, V domains shown)
VH: B3 VH with G10D, Q13K, R19K, G42E, G44R, S75A, N84T, R87K, A88S, T112S
VL: DIVMTQSHKFISTSVGDRVSITCKASQDVDTAVAWYQQKPGQSPKLLIHWASTRHTGVPDRFTGGGSGTDFTLTLSNVQSEDLADYFCQQYSTFPWTFGGGTRLEIK
notes: Murine hybridoma mAb purified on Protein A; also called mAb PD1#3

- binding result (human PD-1 [5]): no binding
B8: Fab 4 (Fab, V domains shown)
VH: B3 VH with S98K
VL: B3 VL
notes: Crude Fab from E. coli; also called PD1-BM VH-S98K
